Experimental data from patent US9999679B2, “Aminofucoidan as a vector for fibrinolysis in thrombotic diseases” (INSTITUT NATIONAL DE LA SANTE ET DE LA RECHERCHE MEDICALE, priority 2013, dated 2018).

Experiments:
platelet-rich thrombus = assay: Ex vivo fibrinolysis of platelet-rich plasma clots (fluorescence release, clot weight loss); parameters: species or system Human; conditions: 17H/37° C. incubation; p<0.01; FIG. 1
Experimental: (§1) Human platelet-rich and -poor plasma (PRP and PPP) were obtained from citrated blood after two centrifugation steps: at 120 g for 15 minutes followed by a second centrifugation step at 1200 g for 12 min. PRP was adjusted to 3×10^8 platelets per mL with poor platelet plasma (PPP) and supplemented with 75 μg/mL of fluorescein isothiocyanate-fibrinogen. Clot formation was induced by adding 10 mmol/L CaCl2 in glass tubes and incubated for 1 hour at 37° C. After retraction, clots were washed in Hank's buffer (Sigma), rapidly dryed on an absorbent paper and weighed. To assess fibrinolysis, PRP or PPP clots were incubated in Hanks' buffer containing the vectorized t-PA complexes (corresponding to 10 UI of t-PA, or 1.72 μg/mL) for 1 h at room temperature. Clots were transferred in a new eppendorf containing 500 μl of Hank's buffer supplemented with 1 μM of human plasminogen. The kinetic of fibrinolysis was evaluated by measuring the release of fluorescence from the clot to the supernatant with a spectrofluorimeter (485/520 nm). […]
(§2) Aminofucoidans were used in variables molecular ratio to t-PA (10 UI (corresponding to 1.72 μg/ml): the 1/10 ratio was used for mono-amine fucoidans and 1/5 for poly-amine fucoidans. Evaluation criteria were the initial lysis kinetic (appearance of fluorescence in supernatant) and the final thrombus weight loss at 17H/37° C. incubation. […]

mesenteric thrombi = assay: FeCl3-induced mesenteric vessel thrombosis, intravital imaging of thrombolysis; format: in vivo; conditions: mice, intravenous; 1 hour following FeCl3-induced injury (~45 min following treatment)
Excerpt: The group has recently published the ability of intravital microscopy to follow the lysis of thrombus in vivo. Thus, validation of t-PA vectorization by amino-fucoidans with intravital microscopy has been carried out according to the protocols described in Boulaftali et al. (Boulaftali et al., 2011, Platelet protease nexin-1, a serpin that strongly influences fibrinolysis and thrombolysis. Circulation; Boulaftali et al., 2012, The mouse dorsal skinfold chamber as a model for the study of thrombolysis by intravital microscopy. Thromb Haemost).
The thrombus is induced by local application of iron oxide on exposed vessels in mice. Fluorescent t-PA or a mixture of amino-fucoidans and t-PA are intravenously injected after iron oxide local application The fluorescence of t-PA and thrombus lysis were followed by intravital transillumination of the mesenteric tissue.
More precisely, after anesthesia (100 mg/kg ketamine, 10 mg/kg xylazine) and laparotomy, mouse mesenteric vessels were exposed for induction of thrombosis and video-microscopic intravital observation. […] Platelet deposition and thrombus growth were monitored for 15 minutes following injury and fluorescent t-PA±DiLysine-fucoidan was then injected intravenously to thrombolysis of the partially occlusive-formed thrombi. […]

[1] = test system: thrombus performed in total blood, including Red Blood Cells; assay: Rotative thromboelastography (Rotem) lysis of thrombus in total blood; conditions: plasma PAI-1 present, ratio (t-PA/fuco) 1/5 or 1/10
Excerpt: Thromboelastography experiments have been carried out on a rotative thromboelastograph (Rotem®) as described in Boulaftali et al. (Boulaftali Y, Ho Tin Noe B, Pena A, Loyau S, Venisse L, Francois D, Richard B, Arocas V, Collet J P, Jandrot-Perrus M, Bouton M C. PLatelet Protease Nexin-1, a Serpin that Strongly Influences Fibrinolysis and Thrombolysis. Circulation. 2011; 123:1326-1334) and Mallet et al. (Mallet S V, Cox D J A. Thromboelastograph Analysis. British J of anaest. 1992; 69:307-313).
In a third series of in vitro experiments, the ability of aminofucoidans to accelerate the lysis of a thrombus performed in total blood, including Red Blood Cells, has been tested with rotative thromboelastography (Rotem®). In this experiment dilysine-fucoidan vectorized t-PA, in a ratio (t-PA/fuco) of 1/5 or 1/10 increased the thrombus lysis to 75% as compared to t-PA alone (55%). In this experiment, the plasma PAI-1 was present.

platelet-poor thrombus = assay: Ex vivo fibrinolysis of platelet-poor plasma clots (fluorescence release, clot weight loss); parameters: species or system Human
Experimental: as §1, §2

[2] = Product No 173 from American diagnostic; cited from earlier work

B1: t-PA: Single-chain recombinant tissue plasminogen activator, secreted by CHO cells transfected with human t-PA cDNA (American diagnostica) (protein, listed as Homo sapiens)
chain: MDAMKRGLCCVLLLCGAVFVSPSQEIHARFRRGARSYQVICRDEKTQMIYQQHQSWLRPVLRSNRVEYCWCNSGRAQCHSVPVKSCSEPRCFNGGTCQQALYFSDFVCQCPEGFAGKCCEIDTRATCYEDQGISYRGTWSTAESGAECTNWNSSALAQKPYSGRRPDAIRLGLGNHNYCRNPDRDSKPWCYVFKAGKYSSEFCSTPACSEGNSDCYFGNGSAYRGTHSLTESGASCLPWNSMILIGKVYTAQNPSAQALGLGKHNYCRNPDGDAKPWCHVLKNRRLTWEYCDVPSCSTCGLRQYSQPQFRIKGGLFADIASHPWQAAIFAKHRRSPGERFLCGGILISSCWILSAAHCFQERFPPHHLTVILGRTYRVVPGEEEQKFEVEKYIVHKEFDDDTYDNDIALLQLKSDSSRCAQESSVVRTVCLPPADLQLPDWTECELSGYGKHEALSPFYSERLKEAHVRLYPSSRCTSQHLLNRTVTDNMLCAGDTRSGGPQANLHDACQGDSGGPLVCLNDGRMTLVGIISWGLGCGQKDVPGVYTKVTNYLDWIRDNMRP
modifications: single-chain recombinant; /mol_type=“protein” /organism=“Homo sapiens”
loss of platelet-rich thrombus weight (platelet-rich thrombus): 30% | vessel occlusion / perfusion of injured vessels (mesenteric thrombi): occlusive thrombosis of injured vessels had occurred in all 3 mice | thrombus lysis [1]: 55% | thrombi weight loss at 17H (platelet-poor thrombus): 97% | specific activity [2]: approximately 580 000 UI/mg
